Measurements as given in patent US11306156.

Columns and labels:
[1] = biological target: D3H44 Fab heavy chain L124E_L143E_K145M, C-terminal ABD2-His6 tag; experiment: LCCA co-expression, SPR tag read-out; DNA 1:3 norm. to 1:1; competing light chain m8
[2] = biological target: D3H44 Fab heavy chain L124E_L143E_K145T, C-terminal ABD2-His6 tag; experiment: as above
[3] = biological target: D3H44 Fab heavy chain L124R_S186R, C-terminal ABD2-His6 tag; experiment: as above
[4] = biological target: D3H44 Fab heavy chain L124E_L143E_K145M, C-terminal ABD2-His6 tag; experiment: LCCA (co-expression, SPR read-out of light chain tags), L1:L2 DNA 1:3 normalised to 1:1; competitor m10
[5] = biological target: D3H44 Fab heavy chain L124E_L143E_K145T, C-terminal ABD2-His6 tag; experiment: as above
[6] = biological target: D3H44 Fab heavy chain L124R_S186K, C-terminal ABD2-His6 tag; experiment: as above
[7] = biological target: D3H44 Fab heavy chain L124E_L143D_K145M, C-terminal ABD2-His6 tag; experiment: LCCA (co-expression, SPR read-out of light chain tags), L1:L2 DNA 1:3 normalised to 1:1; competitor m11
[8] = biological target: D3H44 Fab heavy chain L124E_L143D_K145T, C-terminal ABD2-His6 tag; experiment: as above
[9] = biological target: D3H44 Fab heavy chain L124R_S186R, C-terminal ABD2-His6 tag; experiment: as above
[10] = biological target: D3H44 Fab heavy chain L124E_L143D_K145M, C-terminal ABD2-His6 tag; experiment: LCCA set 9176 (co-expression; SPR read-out of light-chain tags; L1:L2 DNA 1:3, normalized to 1:1); competing light chain m10
[11] = biological target: D3H44 Fab heavy chain L124E_L143D_K145M, C-terminal ABD2-His6 tag; experiment: LCCA set 9196 (co-expression; SPR read-out of light-chain tags; L1:L2 DNA 1:3, normalized to 1:1); competing light chain m13
[12] = biological target: D3H44 Fab heavy chain L124E_L143D_K145T, C-terminal ABD2-His6 tag; experiment: LCCA set 9214 (co-expression; SPR read-out of light-chain tags; L1:L2 DNA 1:3, normalized to 1:1); competing light chain m10
[13] = biological target: D3H44 Fab heavy chain L124E_L143E_K145M, C-terminal ABD2-His6 tag; experiment: LCCA set 9257 (co-expression; SPR read-out of light-chain tags; L1:L2 DNA 1:3, normalized to 1:1); competing light chain m10
[14] = biological target: D3H44 Fab heavy chain L124R_S186K, C-terminal ABD2-His6 tag; experiment: LCCA set 9451 (co-expression; SPR read-out of light-chain tags; L1:L2 DNA 1:3, normalized to 1:1); competing light chain m10
[15] = biological target: D3H44 Fab heavy chain L124R_S186K, C-terminal ABD2-His6 tag; experiment: LCCA set 9461 (co-expression; SPR read-out of light-chain tags; L1:L2 DNA 1:3, normalized to 1:1); competing light chain m13
[16] = biological target: D3H44 Fab heavy chain L124R_S186R, C-terminal ABD2-His6 tag; experiment: LCCA set 9505 (co-expression; SPR read-out of light-chain tags; L1:L2 DNA 1:3, normalized to 1:1); competing light chain m10
[17] = biological target: D3H44 Fab heavy chain L124R_S186K, C-terminal ABD2-His6 tag; experiment: LCCA co-expression, SPR tag read-out; DNA 1:3 norm. to 1:1; competing light chain m8
[18] = biological target: D3H44 Fab heavy chain L124R_S186R, C-terminal ABD2-His6 tag; experiment: LCCA (co-expression, SPR read-out of light chain tags), L1:L2 DNA 1:3 normalised to 1:1; competitor m10
[19] = biological target: D3H44 Fab heavy chain L124R_S186K, C-terminal ABD2-His6 tag; experiment: LCCA (co-expression, SPR read-out of light chain tags), L1:L2 DNA 1:3 normalised to 1:1; competitor m11
[20] = biological target: D3H44 Fab heavy chain L124E_L143D_K145M, C-terminal ABD2-His6 tag; experiment: LCCA set 9199 (co-expression; SPR read-out of light-chain tags; L1:L2 DNA 1:3, normalized to 1:1); competing light chain m13
[21] = biological target: D3H44 Fab heavy chain L124E_L143D_K145T, C-terminal ABD2-His6 tag; experiment: LCCA set 9217 (co-expression; SPR read-out of light-chain tags; L1:L2 DNA 1:3, normalized to 1:1); competing light chain m10
[22] = biological target: D3H44 Fab heavy chain L124E_L143E_K145M, C-terminal ABD2-His6 tag; experiment: LCCA set 9253 (co-expression; SPR read-out of light-chain tags; L1:L2 DNA 1:3, normalized to 1:1); competing light chain m11
[23] = biological target: D3H44 Fab heavy chain L124R_S186K, C-terminal ABD2-His6 tag; experiment: LCCA set 9473 (co-expression; SPR read-out of light-chain tags; L1:L2 DNA 1:3, normalized to 1:1); competing light chain m10
[24] = biological target: D3H44 Fab heavy chain L124R_S186K, C-terminal ABD2-His6 tag; experiment: LCCA set 9484 (co-expression; SPR read-out of light-chain tags; L1:L2 DNA 1:3, normalized to 1:1); competing light chain m13
[25] = biological target: D3H44 Fab heavy chain L124R_S186R, C-terminal ABD2-His6 tag; experiment: LCCA set 9526 (co-expression; SPR read-out of light-chain tags; L1:L2 DNA 1:3, normalized to 1:1); competing light chain m11

## D3H44 light chain Q124E_V133G_S176D_T178D_T180E, N-terminal HA or FLAG tag
[1]
  H1L1:H1L2 normalized median ratio (% (ratio normalized to 100)): 5
[2]
  H1L1:H1L2 normalized median ratio (% (ratio normalized to 100)): 4
[3]
  H2L2:H2L1 normalized median ratio (% (ratio normalized to 100)): 88
[4]
  H1L1:H1L2 normalized median ratio: 5%
[5]
  H1L1:H1L2 normalized median ratio: 4%
[6]
  H2L2:H2L1 normalized median ratio: 82%
[7]
  H1L1:H1L2 normalized median ratio: 12%
[8]
  H1L1:H1L2 normalized median ratio: 14%
[9]
  H2L2:H2L1 normalized median ratio: 94%
[10]
  H1L1:H1L2 normalized median ratio (H1L2 part): 17%
[11]
  H1L1:H1L2 normalized median ratio (H1L2 part): 12%
[12]
  H1L1:H1L2 normalized median ratio (H1L2 part): 15%
[13]
  H1L1:H1L2 normalized median ratio (H1L2 part): 16%
[14]
  H2L2:H2L1 normalized median ratio (H2L2 part): 93%
[15]
  H2L2:H2L1 normalized median ratio (H2L2 part): 89%
[16]
  H2L2:H2L1 normalized median ratio (H2L2 part): 94%

## D3H44 light chain V133G_S176D_T178D_T180E, N-terminal HA or FLAG tag
[1]
  H1L1:H1L2 normalized median ratio (% (ratio normalized to 100)): 5
[2]
  H1L1:H1L2 normalized median ratio (% (ratio normalized to 100)): 4
[17]
  H2L2:H2L1 normalized median ratio (% (ratio normalized to 100)): 90
[5]
  H1L1:H1L2 normalized median ratio: 4%
[18]
  H2L2:H2L1 normalized median ratio: 80%
[8]
  H1L1:H1L2 normalized median ratio: 11%
[19]
  H2L2:H2L1 normalized median ratio: 92%
[20]
  H1L1:H1L2 normalized median ratio (H1L2 part): 13%
[21]
  H1L1:H1L2 normalized median ratio (H1L2 part): 18%
[22]
  H1L1:H1L2 normalized median ratio (H1L2 part): 5%
[23]
  H2L2:H2L1 normalized median ratio (H2L2 part): 93%
[24]
  H2L2:H2L1 normalized median ratio (H2L2 part): 92%
[25]
  H2L2:H2L1 normalized median ratio (H2L2 part): 80%
